62 sequences from the supplement of paper PMC7877785 can be followed below.

A short description of the data set: self-splicing fitness, log relative to wild type (ln ratio); higher = more splicing; Tetrahymena group I intron in knt gene, E. coli kanamycin selection, DiMSum; sequences stand for … in CUCUCU…GGAGGGAAAAGUUAUCAGGCAUGCACCUGGUAGCUAGUCUUUAAACCAAUAGAUUGCAUCGGUUUAAAAGGCAAGACCGUCAAAUUGCGGGAAAGGGGUCAACAGCCGUUCAGUACCAAGUCUCAGGGGAAACUUUGAGAUGGCCUUGCAAAGGGUAUGGUAAUAAGCUGACGGACAUGGUCCUAACCACGCAGCCAAGUCCUAAGUCAACAGAUCUUCUGUUGAUAUGGAUGCAGUUCACAGACUAAAUGUCGGUCGGGGAAGAUGUAUUCUUCUCAUAAGAUAUAGUCGGACCUCUCCUUAAUGGGAGCUAGCGGAUGAAGUGAUGCAACACUGGAGCCGCUGGGAACUAAUUUGUAUGCGAAAGUAUAUUGAUUAGUUUUGGAGUACUCGUGGUCG
The procedure, abridged: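 Pooled colonies went to amplicon sequencing on an Illumina HiSeq 2500 after six replicate transformations. The plates were LB agar with 100 μg/mL carbenicillin, 50 μM IPTG and 0.2% rhamnose, with or without 25 μg/mL kanamycin, incubated overnight at 37°C or 30°C. The E. coli BL21(DE3) library had all eight P1ex-region intron nucleotides randomised, the intron placed in the knt kanamycin-resistance gene on pET-22b(+). DiMSum fitness is the error-weighted combination of replicate fold changes, kanamycin against none, normalised to wild type.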

± gives the uncertainty stated by the source.

With UUAUAGCAAUAUUACGAGAG, under “37 °C”, the “self-splicing fitness (ln)” value is -0.556 ± 0.26.
Regarding GCAUAGCAAUAUUACGCUCA, the “self-splicing fitness (ln)” value (30 °C) was -0.595 ± 0.12 and the “self-splicing fitness (ln)” value (37 °C) is -0.211 ± 0.15.
The like results for UUACAGCAAUAUUACGAGUA were, in that order, -1.5 ± 0.14 and -0.933 ± 0.11.
Consider CUAUAGCAAUAUUACGUAUU, for which, for the setting “30 °C”, the “self-splicing fitness (ln)” value is -3.8 ± 0.32.
UGCUAGCAAUAUUACGACAU: the “self-splicing fitness (ln)” value was -2.027 ± 0.016 (30 °C) and -1.05 ± 0.034 (37 °C).
For AAGUAGCAAUAUUACGGCAC, the “self-splicing fitness (ln)” value was -1.17 ± 0.17 (30 °C) and -0.552 ± 0.17 (37 °C).
The like results for GUUCAGCAAUAUUACGGAUC were, in that order, -1.33 ± 0.098 and -0.366 ± 0.1.
For the sequence GGUGAGCAAUAUUACGGGGG, where the note is “30 °C”, the “self-splicing fitness (ln)” value is -3.41 ± 0.43.
As for AGAAAGCAAUAUUACGCAGU, the “self-splicing fitness (ln)” value (30 °C) was -2.5 ± 0.16 and the “self-splicing fitness (ln)” value (37 °C) was -2.07 ± 0.2.
The like results for AGAAAGCAAUAUUACGAGUG were, in that order, -2.27 ± 0.094 and -1.96 ± 0.12.
As to CUCCAGCAAUAUUACGUCUA, the “self-splicing fitness (ln)” value runs as follows: (30 °C) -4.32 ± 0.24; (37 °C) -3.05 ± 0.18.
For GCGCAGCAAUAUUACGUCCG the same measures were -2.27 ± 0.11 and -0.478 ± 0.14.
With UUCAAGCAAUAUUACGACUA, the “self-splicing fitness (ln)” value runs as follows: (30 °C) 0.15 ± 0.12; (37 °C) 0.446 ± 0.14.
As for CGGUAGCAAUAUUACGUAUA, the “self-splicing fitness (ln)” value (30 °C) is -3.71 ± 0.24 and the “self-splicing fitness (ln)” value (37 °C) is -2.53 ± 0.18.
For the sequence AGAGAGCAAUAUUACGAGAU, the “self-splicing fitness (ln)” value runs as follows: (30 °C) -2.92 ± 0.37; (37 °C) -1.38 ± 0.27.
In the case of UGUUAGCAAUAUUACGGUAU, the “self-splicing fitness (ln)” value by setting is: (30 °C) -2.59 ± 0.4; (37 °C) -1.95 ± 0.28.
Take UUAGAGCAAUAUUACGUUCA: the “self-splicing fitness (ln)” value (30 °C) is -0.27 ± 0.14 and the “self-splicing fitness (ln)” value (37 °C) was -0.536 ± 0.17.
The like results for UGGCAGCAAUAUUACGAUUU were, in that order, -1.66 ± 0.086 and -0.484 ± 0.1.
The like results for UAGUAGCAAUAUUACGGAUG were, in that order, -0.956 ± 0.084 and -0.222 ± 0.087.
The like results for UUCUAGCAAUAUUACGAAGA were, in that order, -1.99 ± 0.19 and -1.61 ± 0.21.
Take ACAUAGCAAUAUUACGCUCG: the “self-splicing fitness (ln)” value runs as follows: (30 °C) -0.317 ± 0.091; (37 °C) 0.247 ± 0.12.
As for GAGAAGCAAUAUUACGUGAC, the “self-splicing fitness (ln)” value by setting is: (30 °C) -2.18 ± 0.12; (37 °C) -1.29 ± 0.17.
For UAAUAGCAAUAUUACGAGAA, the “self-splicing fitness (ln)” value (37 °C) is -1.22 ± 0.26.
As for UUGCAGCAAUAUUACGAGAG, the “self-splicing fitness (ln)” value reads like this: (30 °C) -3.54 ± 0.23; (37 °C) -1.36 ± 0.21.
For CGCAAGCAAUAUUACGCCUC the same measures were -3.64 ± 0.22 and -1.78 ± 0.15.
Consider CUUUAGCAAUAUUACGGUCC, for which the “self-splicing fitness (ln)” value (37 °C) was -1.77 ± 0.32.
For ACGUAGCAAUAUUACGCUAA, the “self-splicing fitness (ln)” value by setting is: (30 °C) -1.84 ± 0.21; (37 °C) -0.48 ± 0.13.
As for CUCCAGCAAUAUUACGAUUC, the “self-splicing fitness (ln)” value reads like this: (30 °C) -4.14 ± 0.18; (37 °C) -2.72 ± 0.19.
For AGGCAGCAAUAUUACGAUAU, the “self-splicing fitness (ln)” value was -1.27 ± 0.069 (30 °C) and -0.399 ± 0.091 (37 °C).
Consider CAAUAGCAAUAUUACGCUGC, for which the “self-splicing fitness (ln)” value by setting is: (30 °C) -3.49 ± 0.28; (37 °C) -1.92 ± 0.33.
With UGCUAGCAAUAUUACGCCUU, the “self-splicing fitness (ln)” value is -2.68 ± 0.23 (30 °C) and 0.255 ± 0.17 (37 °C).
The like results for CUACAGCAAUAUUACGGAGC were, in that order, -3.83 ± 0.14 and -3.14 ± 0.17.
In the case of AAUCAGCAAUAUUACGUAAU, the “self-splicing fitness (ln)” value (30 °C) was -0.172 ± 0.059 and the “self-splicing fitness (ln)” value (37 °C) is 0.204 ± 0.075.
For the sequence GUAUAGCAAUAUUACGCGCG, the “self-splicing fitness (ln)” value was -1.55 ± 0.14 (30 °C) and -0.678 ± 0.15 (37 °C).
Take GCAGAGCAAUAUUACGAUCG: under “37 °C”, the “self-splicing fitness (ln)” value was -1.33 ± 0.34.
For the sequence GAUCAGCAAUAUUACGCAAG, the “self-splicing fitness (ln)” value was -1.99 ± 0.15 (30 °C) and -1.34 ± 0.14 (37 °C).
As to AAGGAGCAAUAUUACGCGGG, the “self-splicing fitness (ln)” value (30 °C) is -3.76 ± 0.46.
CUAUAGCAAUAUUACGGUCA: the “self-splicing fitness (ln)” value (30 °C) is -1.82 ± 0.19 and the “self-splicing fitness (ln)” value (37 °C) is -1.7 ± 0.24.
The like results for AUGCAGCAAUAUUACGUGUC were, in that order, -3.68 ± 0.18 and -3.18 ± 0.2.
As to UAUCAGCAAUAUUACGACAG, the “self-splicing fitness (ln)” value by setting is: (30 °C) -0.385 ± 0.078; (37 °C) 0.0531 ± 0.1.
The like results for CACAAGCAAUAUUACGGUAG were, in that order, -0.991 ± 0.043 and -0.207 ± 0.059.
Turning to AGUAAGCAAUAUUACGCCGU, the “self-splicing fitness (ln)” value by setting is: (30 °C) -0.289 ± 0.17; (37 °C) -2.06 ± 0.31.
The like results for UCAAAGCAAUAUUACGUUCU were, in that order, -3.76 ± 0.26 and -2.87 ± 0.22.
Take GUGGAGCAAUAUUACGGGAA: the “self-splicing fitness (ln)” value reads like this: (30 °C) -2.15 ± 0.28; (37 °C) -3.23 ± 0.35.
For UUUGAGCAAUAUUACGCGGA the same measures were -3.43 ± 0.35 and -1.28 ± 0.17.
For UAGUAGCAAUAUUACGGAAU, the “self-splicing fitness (ln)” value (37 °C) is -2.65 ± 0.44.
For GCCAAGCAAUAUUACGCUUA, the “self-splicing fitness (ln)” value is, setting by setting: (30 °C) -1.02 ± 0.086; (37 °C) -0.264 ± 0.11.
For the sequence GACUAGCAAUAUUACGCGCU, the “self-splicing fitness (ln)” value runs as follows: (30 °C) -0.916 ± 0.095; (37 °C) -0.878 ± 0.12.
For GGAAAGCAAUAUUACGCGAA the same measures were -1.66 ± 0.17 and -1.19 ± 0.13.
For GCAAAGCAAUAUUACGCUGU the same measures were -3.42 ± 0.26 and -2.84 ± 0.31.
For AACCAGCAAUAUUACGGAUU, the “self-splicing fitness (ln)” value runs as follows: (30 °C) -2.07 ± 0.071; (37 °C) -1.08 ± 0.087.
Turning to UAAAAGCAAUAUUACGUGCA, the “self-splicing fitness (ln)” value is -0.586 ± 0.067 (30 °C) and -0.196 ± 0.079 (37 °C).
For CGGCAGCAAUAUUACGGGUG the same measures were -0.564 ± 0.046 and -0.449 ± 0.06.
The like results for UGACAGCAAUAUUACGAGCA were, in that order, -0.681 ± 0.051 and 0.236 ± 0.064.
Take AGGAAGCAAUAUUACGUCGU: the “self-splicing fitness (ln)” value is -2.6 ± 0.14 (30 °C) and -0.803 ± 0.12 (37 °C).
For GCGCAGCAAUAUUACGCGGA the same measures were -0.906 ± 0.096 and -0.269 ± 0.084.
The like results for CCAGAGCAAUAUUACGGCCU were, in that order, -2.77 ± 0.13 and -1.27 ± 0.17.
The like results for UACUAGCAAUAUUACGUCCG were, in that order, -0.327 ± 0.12 and 0.11 ± 0.14.
Turning to CGGAAGCAAUAUUACGCAGC, the “self-splicing fitness (ln)” value is -3.56 ± 0.37 (30 °C) and -1.49 ± 0.27 (37 °C).
Regarding GGGUAGCAAUAUUACGAGUU, the “self-splicing fitness (ln)” value is, setting by setting: (30 °C) -0.948 ± 0.092; (37 °C) -1.38 ± 0.2.
As for AUCUAGCAAUAUUACGCGAC, the “self-splicing fitness (ln)” value (30 °C) was -2.29 ± 0.4 and the “self-splicing fitness (ln)” value (37 °C) was -0.43 ± 0.39.
As to GCGAAGCAAUAUUACGUCGU, the “self-splicing fitness (ln)” value (30 °C) is -3.79 ± 0.27 and the “self-splicing fitness (ln)” value (37 °C) is -2.6 ± 0.28.
